Results on 2 molecules are retold here after patent US20200392227A1 (LYVGEN BIOPHARMA, published 2020).

Common to all, as to assay: BLI
Assay [1] deals with T1, human FcRIIIB protein (MednaBio, E1037) (human, UniProt O75015 17-200).
T1 construct: Bought; also called FcγRIIIB; FcgRIIIB
The procedure, abridged:
(§1)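 Binding was measured by biolayer interferometry on an Octet Red96 System. Commercial human Fc receptor proteins were loaded at 20 μg/mL onto anti-penta-HIS biosensors, which were then dipped into an 8-point 1:3 dilution series of test IgG starting at 300 nM in PBS with 0.1% BSA and 0.02% Tween-20, at pH 7.2 for Fcγ receptors and pH 6 for FcRn. Kd, kon and koff were obtained by global fitting, with data fitted to a 1:1 binding model.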

The target of assay [2] is T2, human FcRIIIA-F158 protein (MednaBio, E1036) (human, UniProt P08637 17-208).
T2 construct: Bought; also called FcγRIIIA(F)
T2 sequence (P08637 17-208 limits assumed): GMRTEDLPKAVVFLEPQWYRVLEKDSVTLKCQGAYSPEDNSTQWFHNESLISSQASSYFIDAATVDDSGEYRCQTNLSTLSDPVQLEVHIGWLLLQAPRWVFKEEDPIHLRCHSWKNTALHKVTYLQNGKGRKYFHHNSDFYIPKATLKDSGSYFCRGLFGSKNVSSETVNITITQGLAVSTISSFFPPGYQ
The method in brief:
as §1

Assay [3] has as its target T1, human FcRIIIB protein (MednaBio, E1037). The source holds these as a separate data set.
Assay [4] has as its target T2, human FcRIIIA-F158 protein (MednaBio, …). This is another data set of the same source.
Assay [5] concerns the target T1, human FcRIIIB protein (MednaBio, E1037). The procedure, abridged:
as §1
This is another data set of the same source.

The target of assay [6] is T2, human FcRIIIA-F158 protein (MednaBio, …). The method in brief: as §1
The source holds these as a separate data set.

In assay [7] the target is T1, human FcRIIIB protein (MednaBio, E1037). This is another data set of the same source.
The target in assay [8] is T2, human FcRIIIA-F158 protein (MednaBio, …). The source holds these as a separate data set.
The target of assay [9] is T3, human FcRn protein (MednaBio, E1032) (human, UniProt P55899 24-297; P61769 21-119).
T3 construct: Bought; assays at pH 6
T3 sequence (P55899 24-297 limits assumed, form in doubt, chain 1 of 2): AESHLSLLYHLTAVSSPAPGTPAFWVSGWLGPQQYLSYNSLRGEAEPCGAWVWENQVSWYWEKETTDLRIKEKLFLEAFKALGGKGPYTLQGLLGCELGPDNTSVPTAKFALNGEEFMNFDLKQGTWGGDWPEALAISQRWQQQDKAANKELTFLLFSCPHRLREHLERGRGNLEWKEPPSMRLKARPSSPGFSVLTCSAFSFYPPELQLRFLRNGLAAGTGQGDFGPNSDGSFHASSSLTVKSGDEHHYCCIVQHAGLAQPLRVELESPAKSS
T3 sequence (P61769 21-119 limits assumed, form in doubt, chain 2 of 2): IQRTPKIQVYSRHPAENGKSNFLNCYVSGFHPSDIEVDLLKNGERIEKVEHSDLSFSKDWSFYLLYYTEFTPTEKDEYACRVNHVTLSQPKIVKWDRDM
The method in brief:
as §1

Assay [10] deals with T4, human FcRIIA protein (MednaBio, E1033) (human, UniProt P12318 34-218, limits assumed).
T4 construct: Bought; also called FcγRIIA
T4 sequence (looked up): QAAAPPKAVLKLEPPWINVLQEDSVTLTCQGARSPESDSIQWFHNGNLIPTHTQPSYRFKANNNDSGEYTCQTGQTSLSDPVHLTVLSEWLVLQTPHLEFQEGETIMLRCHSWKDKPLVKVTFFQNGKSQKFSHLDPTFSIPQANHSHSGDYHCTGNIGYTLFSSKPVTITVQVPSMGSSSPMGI
The procedure, abridged:
as §1

Assay [11] addresses T5, human FcRI protein (MednaBio, E1031) (human, UniProt P12314 16-288, limits assumed).
T5 construct: Bought; loaded on anti-penta-HIS biosensors; also called FcγRI
The method in brief:
as §1

Read-outs that look alike come from different tables or passages of the source.

T5 sequence (P12314 16-288 limits assumed): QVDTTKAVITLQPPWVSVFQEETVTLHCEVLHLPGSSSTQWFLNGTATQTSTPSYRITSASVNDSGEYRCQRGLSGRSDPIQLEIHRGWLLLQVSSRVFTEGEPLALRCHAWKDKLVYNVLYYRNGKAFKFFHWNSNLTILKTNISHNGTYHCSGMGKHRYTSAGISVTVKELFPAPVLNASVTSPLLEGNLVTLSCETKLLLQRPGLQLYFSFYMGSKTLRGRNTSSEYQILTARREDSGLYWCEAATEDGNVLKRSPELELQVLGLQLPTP
T1 sequence (O75015 17-200 limits assumed): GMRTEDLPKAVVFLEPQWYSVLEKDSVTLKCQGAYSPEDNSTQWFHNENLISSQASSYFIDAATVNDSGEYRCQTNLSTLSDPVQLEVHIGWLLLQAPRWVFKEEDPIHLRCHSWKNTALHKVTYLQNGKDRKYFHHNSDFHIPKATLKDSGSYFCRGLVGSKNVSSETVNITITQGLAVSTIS

B1: wild-type human IgG1 control (antibody)
heavy: not shown
light: SYELTQPPSVSVSPGQTASITCSGDNIGDQYAHWYQQKPGQSPVLVIYQDKNRPSGIPERFSGSNSGNTATLTISGTQAMDEADYYCATYTGFGSLAVFGGGTKLTVLGQPKAAPSVTLFPPSSEELQANKATLVCLISDFYPGAVTVAWKADSSPVKAGVETTTPSKQSNNKYAASSYLSLTPEQWKSHRSYSCQVTHEGSTVEKTVAPTECS
notes: Control IgG
B1: the Kd (in general, the equilibrium constant for the complex coming apart) in assay [1] stood at 130 nM; in assay [2], 120 nM; in [3], 130 nM; in assay [4] it was 120 nM; in assay [5], 130 nM; in [6], 120 nM. The dissociation constant (Kd) in [7] amounted to 130 nM; in [8], 120 nM. Moreover, the koff (as a rule, a measure of how fast the partners let go of each other) in [1] amounted to 0.027 s⁻¹; in [2] it was 0.02 s⁻¹; in assay [3], 0.027 s⁻¹; in assay [4], 0.02 s⁻¹; in [5] it was 0.027 s⁻¹; in [6] it was 0.02 s⁻¹. Further, the koff in [7] amounted to 0.027 s⁻¹; in assay [8], 0.02 s⁻¹. Further, the kon – broadly, the second-order rate constant of association – in assay [1] came out at 210000 M⁻¹ s⁻¹; in [2], 170000 M⁻¹ s⁻¹; in [3] it was 210000 M⁻¹ s⁻¹; in assay [4], 170000 M⁻¹ s⁻¹; in assay [5], 210000 M⁻¹ s⁻¹; in [6], 170000 M⁻¹ s⁻¹. For the same molecule, the values for the kon in assay [7] and in assay [8] were 210000 M⁻¹ s⁻¹ and 170000 M⁻¹ s⁻¹, respectively.

B2: wild-type human IgG4 control (antibody)
heavy: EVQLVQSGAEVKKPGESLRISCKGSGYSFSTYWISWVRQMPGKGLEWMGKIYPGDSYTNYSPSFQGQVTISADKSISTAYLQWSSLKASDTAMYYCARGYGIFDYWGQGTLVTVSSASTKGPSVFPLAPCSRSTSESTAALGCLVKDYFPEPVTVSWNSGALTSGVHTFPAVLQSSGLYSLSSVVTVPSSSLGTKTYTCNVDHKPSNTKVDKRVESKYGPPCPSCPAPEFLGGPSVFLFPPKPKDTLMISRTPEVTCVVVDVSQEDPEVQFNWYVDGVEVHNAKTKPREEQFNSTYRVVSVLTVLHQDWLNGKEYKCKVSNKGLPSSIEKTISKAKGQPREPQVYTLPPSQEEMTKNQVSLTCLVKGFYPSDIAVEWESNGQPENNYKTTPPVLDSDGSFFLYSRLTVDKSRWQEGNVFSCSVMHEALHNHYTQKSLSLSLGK
light: SYELTQPPSVSVSPGQTASITCSGDNIGDQYAHWYQQKPGQSPVLVIYQDKNRPSGIPERFSGSNSGNTATLTISGTQAMDEADYYCATYTGFGSLAVFGGGTKLTVLGQPKAAPSVTLFPPSSEELQANKATLVCLISDFYPGAVTVAWKADSSPVKAGVETTTPSKQSNNKYAASSYLSLTPEQWKSHRSYSCQVTHEGSTVEKTVAPTECS
notes: Control IgG
In [9], B2 returned a Kd of 18 nM, a koff of 0.012 s⁻¹ and a kon of 640000 M⁻¹ s⁻¹. Moreover, in assay [10], binding was characterised by a dissociation constant (Kd) of 400 nM, the koff turned out to be 0.055 s⁻¹ and the kon was 140000 M⁻¹ s⁻¹. Also, in [11], the Kd is 4.8 nM, the koff was found to be 0.0017 s⁻¹ and the kon stood at 360000 M⁻¹ s⁻¹.
